Assay [1] concerns the target T1, TROP2 antigen (extracellular region of TROP2, expressed in 293F cells) (human, UniProt P09758 27-274).
T1 construct: extracellular domain; The antigen was coated on ELISA plates; For the Octet assay it was biotin-labelled and immobilized on streptavidin sensors; also called TROP2 protein
T1 sequence (looked up): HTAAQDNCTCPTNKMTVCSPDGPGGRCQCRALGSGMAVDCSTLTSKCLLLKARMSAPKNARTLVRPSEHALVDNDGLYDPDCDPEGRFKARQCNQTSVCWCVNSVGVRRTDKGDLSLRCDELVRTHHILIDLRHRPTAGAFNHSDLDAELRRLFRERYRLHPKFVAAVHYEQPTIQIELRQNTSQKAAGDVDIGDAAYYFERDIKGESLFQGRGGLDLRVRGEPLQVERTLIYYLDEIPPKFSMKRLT
The assay can be described thus: ELISA, TROP2-coated plate, anti-human Fc HRP. (ELISA stands for enzyme-linked immunosorbent assay.)

Assay [2] concerns the target T1, TROP2 antigen (extracellular region of …). The assay can be described thus: BLI (ForteBio Octet), biotin-labelled antigen on streptavidin sensor, antibody in solution. The text has this:
Pall ForteBio Octet optical analysis technology platform is used to evaluate the absolute affinity of antibody-antigen binding. In this method, the biotin-labeled antigen is immobilized on the surface of the streptavidin biosensor chip, the baseline is balanced for 180 seconds, and then it binds with the antibody diluted in the solution concentration gradient for 30 seconds, which increases the optical thickness of the chip, resulting in The wavelength shifts (Δλ), and then enters the dissociation phase of 30 sec. The interaction between the Trop2 antigen and the corresponding antibody is measured in real time, and the specificity of binding, binding rate, dissociation rate or sample concentration are precisely and accurately measured at each concentration. After summarizing the k-on and k-off values under at least 5 concentration gradients, the KD binding constant is obtained.
For orientation: BLI is a label-free optical method that tracks binding on a fibre tip over time.

Assay [3] shares this target. The assay can be described thus: competition ELISA on TROP2-coated plate; competitor: 7F11-humanized-biotin.
Assay [4] addresses T2, TROP2 on BXPC-3 and MCF-7 cells (human, UniProt P09758 27-323).
T2 construct: whole, on cells; also called BxPC-3 cells; MCF-7 cells (positive cells)
T2 sequence (looked up): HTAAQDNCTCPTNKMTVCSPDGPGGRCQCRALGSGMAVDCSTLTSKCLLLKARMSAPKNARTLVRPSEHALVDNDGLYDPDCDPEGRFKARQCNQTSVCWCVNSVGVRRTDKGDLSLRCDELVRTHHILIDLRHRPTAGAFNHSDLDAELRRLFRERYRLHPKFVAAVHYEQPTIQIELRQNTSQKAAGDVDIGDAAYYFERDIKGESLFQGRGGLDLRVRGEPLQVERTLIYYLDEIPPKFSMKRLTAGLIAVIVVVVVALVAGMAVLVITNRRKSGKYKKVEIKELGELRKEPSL
The assay can be described thus: flow cytometry on BXPC-3 cells, 1 hr at 4 C, FITC-labelled secondary antibody. On the technique in general: Flow cytometry measures light scatter and fluorescence of single cells or particles in a stream.

Assay [5] addresses T2, TROP2 on BXPC-3 and MCF-7 cells. As to the kind of experiment: flow cytometry on MCF-7 cells, 1 hr at 4 C, FITC-labelled secondary antibody.
For assay [6] the target is unchanged. The assay can be described thus: flow cytometry on BXPC-3 cells, 1 hr at 4 C, FITC-labelled secondary antibody. The source holds these as a separate data set.
Assay [7] concerns the target T1, TROP2 antigen (extracellular region of …). As to the kind of experiment: competition ELISA on TROP2-coated plate; competitor: 0.5 ng/ml 4D3-humanized-biotin. On the procedure:
The 4D3-humanized antibody was labeled with biotin, and the inflection point value of the binding curve was determined by ELISA to be 0.5 ng/ml. Prepare an ELISA blocking solution containing 0.5 ng/ml 4D3 biotin-labeled antibody, and configure 50 ug/ml of competing antibodies 4D3-chimeric and 4D3-humanized on the basis of this solution. Add the solution containing biotin-labeled antibody and competing antibody to A1˜A12, 150 ul per well, then aspirate 50 ul and add to B2˜B12, mix well with the pre-added biotin antibody solution with a volume of 100 ul, and then dilute 3 times in sequence To H1˜H12, incubate at 37° C. for 1 hr, then wash and incubate the […], incubate at 37° C. for 1 hr, then wash 3 times, perform color development for 25 min and read the value.
FIG. 12: 4D3-humanized-biotin antibodies compete with ch4D3 and hum4D3 antibodies at 0.02-50 ug/ml, respectively. The two competing antibodies show the same degree of competitive activity and bind to the same epitope.

Assay [8] has the same target. The assay can be described thus: ELISA on a TROP2-coated plate, anti-human Fc HRP detection. The procedure:
(§1) Dilute the chimeric antibody to a concentration of 50 ug/ml, add it to wells A1˜H1 on the TROP2-coated ELISA plate, and then perform a 3-fold horizontal dilution from A1 to A12; incubate at 37° C. for 1 hr, then rinse and add Mouse anti-human Fc HRP-labeled antibody was incubated at 37° C. for color development.

Assay [9] shares this target. As to the kind of experiment: ELISA, TROP2-coated plate, chimeric antibody, anti-human Fc HRP. The procedure:
as §1

B1: 7F11 humanized antibody (antibody, V domains shown)
VH: QVQLVQSGAEVKKPGASVKVSCKASGYTFTDHVISWVRQATGQGLEWMGQIYPGSDNSYYAQKFQGRVTLTADKSINTAYMELSSLRSEDTAVYYCAREGYGYGKNGVGYAMDYWGQGTLVTVSS
VL: DIVMTQSPDSLAVSLGERATINCKASQSVSNDVVWYQQKPGQPPKLLIYYASNRYTGVPDRFSGSGYGTDFTLTISSLQAEDVAVYYCQQDYSSPWTFGGGTKVEIKR
notes: also called Hu7F11; hu7F11
Take B1: the EC50 in [1] was determined as 0.0601 µg/mL; in [3], 0.856 µg/mL. This molecule returned a Kd in assay [2] of 0.0994 nM. In assay [2], this molecule registered a koff of 1.85e-05 s⁻¹. The same molecule displayed a kon in assay [2] of 186000 M⁻¹ s⁻¹. Moreover, the “EC50 (read off the curve)” value in assay [4] was ~0.05 µg/mL; in assay [5], ~0.04 µg/mL.

B2: 4D3 humanized antibody (antibody, V domains shown)
VH: QVQLVQSGAEVKKPGASVKLSCKASGYTFTSFDINWVRQAPEQRLEWMGWIFPGDGNTKYSQKFQGRATITRDTSASTAYMELSSLRSEDTAVYYCVRGEALYYFDYWGQGTLVTVSS
VL: DIQMTQSPSSLSASVGDRVTITCRASQDINKYLAWYQQKPGKVPKLLIYSTSTLQSGVPSRFSGSGSGTDFTLTISSLQPEDVATYYCLQYDDLFTFGQGTKLEIKR
notes: also called Hu4D3; hu4D3
As for B2, the “EC50 (read off the curve)” value in assay [6] was ~0.04 µg/mL. In [1], this molecule returned an EC50 of 0.0502 µg/mL. Besides, in assay [2], the Kd is 30.7 nM, the koff was found to be 0.00428 s⁻¹ and the kon stood at 139000 M⁻¹ s⁻¹. Besides, a half-maximal effect in assay [7] (EC50) was put at 0.326 µg/mL.

B3: 7F11 chimeric antibody (antibody, human IgG1, kappa, V domains shown)
VH: QVQLQQSGPEVVKPGASVKMSCKASGYTFTDHVISWVKQRTGQGLEWIGQIYPGSDNSYYSEKLKDKATLTADKSSNTAYMQLVSLTSEDSAVYFCAREGYGYGKNGVGYAMDYWGQGTSVTVSS
VL: SIVMTQTPKFLLVSAGDRVTITCKASQSVSNDVVWYQQKPGQSPKLLIYYASNRYTGVPDRFTGSGYGTDFTFTISTAQAEDLAVYFCQQDYSSPWTFGGGTKLEIKR
notes: The entries begin with a leader (signal) peptide; also called ch7F11
On to B3, for which the EC50 in [1] is 0.061 µg/mL; in [3] it was 0.732 µg/mL; in assay [9] it was 0.071 µg/mL. The molecule further came in with a Kd in [2] of 0.0611 nM. In assay [2], this molecule came in with a koff of 1.45e-05 s⁻¹. This molecule yielded a kon in assay [2] of 243000 M⁻¹ s⁻¹. Besides, in [8], the “EC50 (read off the curve)” value was ~0.07 µg/mL.

B4: 4D3 chimeric antibody (antibody, human IgG1, kappa, V domains shown)
VH: QVQLQQSGAELVKPGASVKLSCKASGYTFTSFDINWVRQRPEQGLEWIGWIFPGDGNTKSNEKFKGKATLTTDKSSSTAYMQLSRLTSEDSAVYFCVRGEALYYFDYWGPGTTLTVSS
VL: DIQMTQSPSSLSASLGGKVTITCKPSQDINKYIAWYQHKPGKGPRLLIHSTSTLQPGIPSRFSGSGSGRDYSFTISNLEPEDIATYYCLQYDDLFTFGSGTKLEIKR
notes: The entries begin with a leader (signal) peptide; also called ch4D3
Molecule B4 displayed an EC50 in assay [1] of 0.056 µg/mL. Besides, in assay [2], the affinity, expressed as Kd, was 6.89 nM; the koff was determined as 0.00162 s⁻¹; the kon stood at 235000 M⁻¹ s⁻¹. Besides, in [8], the “EC50 (read off the curve)” value is ~0.05 µg/mL. Further, in assay [7], a half-maximal response (EC50) required 0.336 µg/mL. Also, the EC50 in [9] was found to be 0.047 µg/mL.

A word on the EC50: it is the concentration at which the effect is half-maximal. The term Kd denotes the equilibrium constant for the complex coming apart. As a reminder, the koff is a measure of how fast the partners let go of each other. A high value points to fast dissociation. One may read the kon as the rate constant with which the complex forms. High values mean fast association, low ones slow association. As a reminder, the EC50 (read off the curve) is the concentration giving half of the maximal effect. High values mean a less potent agent, low ones a more potent agent.
